The values that follow come from patent publication US20170137467A1 (CHROMOTEK, published 2017).

Ends that are not written are not given here. * marks the point of attachment. Biotin = O=C1N[C@H]2[C@H](CS[C@H]2CCCCC(=O)*)N1; ethylene glycol linker = not defined here

The target of assay [1] is T1, GFP with a C-terminal BC2 tag (GFPBC2T) (human, UniProt P42212 1-238 = GFP).
T1 construct: Expressed in E. coli; also called C-terminally BC2-tagged GFP
Kind of assay: binding studies with GFPBC2T.

The target in assay [2] is T2, BC2T Q11E library peptide (human).
T2 peptide: Ac-PDRKAAVSHWEQ-NH2
The experiment in a line: peptide library pulldown on immobilized Nb, LC-MS of supernatant; ratio vs GFP-Nb control (1 = not captured, 0 = captured). An excerpt:
(§1) In total, 12 different BC2T libraries displaying all 20 proteinogenic amino acids in one single position of the peptide were used in immunoprecipitation experiments. […] The direct comparison with the GFP-Nb made it possible to determine the quantitative degree of peptide capture without the need of labeled standards. […] The more peptide was captured the more the value approximates 0. It was not possible to discriminate between isoleucine (I) and leucine (L) peptide versions since these peptides are isobaric.
(§2) To investigate the binding specificity of the BC2T and derived mutants peptide libraries for each amino acid position of the sequence […] (SEQ ID NO:4) were synthesized with acetyl and amide groups located at the N-termini or C-termini respectively (Intavis). […] Incubations were performed in 300 μl PBS/0.01% CHAPS for 1 h on a HulaMixer (Life Technologies). Subsequent to a centrifugation step 10 μl supernatant were analyzed in a LC-MS procedure. Peptides were separated using an UltiMate3000 RSLCnano System (Thermo Scientific), composed of a C18 PepMap100μ-Precolumn (300 μm×5 mm; particle size: 5 μm; pore size: 100 Å—Thermo Scientific) and a C18 analytical column (Acclaim Rapid Separation LC (RSLC) Column: 150 mm×5 mm; particle size: 2.2 μm; pore size: 100 Å—Thermo Scientific). A step gradient was applied starting at 8% and ending after 20 min at 30% eluent B (80% acetonitrile, 20% H₂O, 0.1% formic acid).

The target of assay [3] is T3, BC2T W10D library peptide (human).
T3 construct: also called BC2TW10X: D
T3 peptide: Ac-PDRKAAVSHDQQ-NH2
The assay is described as above.
Excerpt: as §1, §2

The target in assay [4] is T4, BC2T W10E library peptide (human).
T4 construct: also called BC2TW10X: E
T4 peptide: Ac-PDRKAAVSHEQQ-NH2
The assay is described as above.
Excerpt: as §1, §2

The target of assay [5] is T5, BC2T Q12D library peptide (human).
T5 peptide: Ac-PDRKAAVSHWQD-NH2
The assay is described as above.
Excerpt: as §1, §2

The target in the next assay is T6, BC2T H9D library peptide (human).
T6 peptide: Ac-PDRKAAVSDWQQ-NH2
Described as above.
Excerpt: as §1, §2

Another assay addresses T7, BC2T S8E library peptide (human).
T7 construct: also called BC2TS8X: E
T7 peptide: Ac-PDRKAAVEHWQQ-NH2
Described as above.
Excerpt: as §1, §2

In assay [6] the target is T8, BC2T Q12E library peptide (human).
T8 peptide: Ac-PDRKAAVSHWQE-NH2
The assay is described as above.
Excerpt: as §1, §2

Assay [7] addresses T9, BC2T Q11D library peptide (human).
T9 peptide: Ac-PDRKAAVSHWDQ-NH2
The assay is described as above.
Excerpt: as §1, §2

The next assay deals with T10, BC2T H9E library peptide (human).
T10 peptide: Ac-PDRKAAVSEWQQ-NH2
The assay is described as above.
Excerpt: as §1, §2

For the next assay, the target named is T11, BC2T S8D library peptide (human).
T11 construct: also called BC2TS8X: D
T11 peptide: Ac-PDRKAAVDHWQQ-NH2
Described as above.
Excerpt: as §1, §2

Assay [8] deals with T12, eGFP-PCNA with C-terminal BC2 tag (eGFP-PCNABC2T) (human, UniProt P12004 1-261).
T12 construct: Expressed in HEK293T or HeLa cells; not shown: eGFP
T12 sequence (P12004 other isoform, or with tags, fused parts or gaps limits assumed): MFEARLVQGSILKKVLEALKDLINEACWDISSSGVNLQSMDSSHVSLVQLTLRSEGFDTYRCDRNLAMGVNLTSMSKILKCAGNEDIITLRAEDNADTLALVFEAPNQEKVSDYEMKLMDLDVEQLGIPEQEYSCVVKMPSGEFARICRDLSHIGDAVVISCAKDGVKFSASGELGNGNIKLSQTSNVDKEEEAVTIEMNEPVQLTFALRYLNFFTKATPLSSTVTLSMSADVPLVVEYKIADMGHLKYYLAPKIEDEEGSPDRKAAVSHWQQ
Kind of assay: immunocytochemistry on fixed HeLa cells expressing GFP-PCNABC2T. The protocol:
After 24 h, cells were washed once with PBS and fixed with 4% w/v paraformaldehyde (PFA) in PBS for 15 min at RT or with methanol for 15 min at −20° C. After removal of the fixative and washing twice with PBS, cells were blocked and permeabilized with 3% w/v BSA and 0.1% v/v Triton X-100 in PBS for 1 h at RT. […] Unbound nanobody and DAPI were removed by washing 3 times with a mixture of PBS and 6% v/v 5 M NaCl in H₂O. Images of FIG. 4 b and FIG. 10 b were acquired with an Image Xpress micro XL system. Confocal images of FIG. 10 a were acquired with an ImageXpress Micro Confocal.

Assay [9] addresses T13, BC2T peptide (biotinylated) (human, reading uncertain).
T13 construct: Immobilised on streptavidin biosensors; also called original BC2T; wildtype BC2T
T13 peptide: {Biotin-ethylene glycol linker}-PDRKAAVSHWQQ
Kind of assay: BLI, biotinylated peptide on streptavidin biosensor, BC2-Nb in solution, 1:1 model. On the procedure:
(§3) Biolayer interferometry (BLI)-based affinity measurements were used to assess two improved variations of the original BC2T sequence (a: […], pTag1 SEQ ID NO:33; b: […], pTag2 SEQ ID NO:34) in comparison with the original BC2T sequence (c: BC2T SEQ ID NO:4).
(§4) The shaking rate was 1200 rpm. As a reference, each peptide was also incubated with BLItz buffer only according to the protocol above. […] The sensor was regenerated by sequential dips into 10 mM glycine pH 2.0 and BLItz buffer (repeated three times). Raw data were analysed using the software BLItz Pro (fortéBio) and a 1:1 binding model.

The target of assay [10] is T14, pTag2 peptide (biotinylated) (reading uncertain).
T14 construct: Immobilised on streptavidin biosensors
T14 peptide: {Biotin-ethylene glycol linker}-ADRVRAVSHWSS
The description is as above. The protocol: as §3, §4

Assay [11] concerns the target T15, pTag1 peptide (biotinylated) (reading uncertain).
T15 construct: Immobilised on streptavidin biosensors
T15 peptide: {Biotin-ethylene glycol linker}-PDRVRAVSHWSS
Described as above. The protocol: as §3, §4

In assay [12] the target is T16, mCherry-Vimentin with C-terminal BC2 tag (mCherry-VIMBC2T) (human, UniProt P08670 1-466).
T16 construct: Expressed in HEK293T or HeLa cells; also called mCherry-VimentinBC2T; not shown: mCherry fluorescent protein
T16 sequence (P08670 other isoform, or with tags, fused parts or gaps): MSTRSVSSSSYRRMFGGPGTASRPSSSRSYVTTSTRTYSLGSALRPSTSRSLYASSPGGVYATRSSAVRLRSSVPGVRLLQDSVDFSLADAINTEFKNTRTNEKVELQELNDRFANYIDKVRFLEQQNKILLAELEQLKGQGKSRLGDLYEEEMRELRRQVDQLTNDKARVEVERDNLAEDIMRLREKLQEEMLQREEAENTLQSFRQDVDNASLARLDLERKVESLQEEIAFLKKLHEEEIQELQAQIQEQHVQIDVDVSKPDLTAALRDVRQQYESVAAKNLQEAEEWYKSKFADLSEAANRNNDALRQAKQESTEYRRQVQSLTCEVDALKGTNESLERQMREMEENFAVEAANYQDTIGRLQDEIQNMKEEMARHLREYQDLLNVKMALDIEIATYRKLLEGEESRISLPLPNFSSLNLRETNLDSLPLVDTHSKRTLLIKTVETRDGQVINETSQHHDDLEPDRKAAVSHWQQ
Kind of assay: Western blot probed with BC2-NbAF488. For orientation: Immunoblotting shows a protein as a band on a membrane.

In assay [13] the target is T12, eGFP-PCNA with C-terminal BC2 tag …. Kind of assay: Western blot probed with BC2-NbAF488.
The target in assay [14] is T17, mCherry-Vimentin (untagged) (UniProt P08670 1-466).
T17 construct: Control without the BC2 tag; not shown: mCherry fluorescent protein
T17 sequence (P08670 whole entry): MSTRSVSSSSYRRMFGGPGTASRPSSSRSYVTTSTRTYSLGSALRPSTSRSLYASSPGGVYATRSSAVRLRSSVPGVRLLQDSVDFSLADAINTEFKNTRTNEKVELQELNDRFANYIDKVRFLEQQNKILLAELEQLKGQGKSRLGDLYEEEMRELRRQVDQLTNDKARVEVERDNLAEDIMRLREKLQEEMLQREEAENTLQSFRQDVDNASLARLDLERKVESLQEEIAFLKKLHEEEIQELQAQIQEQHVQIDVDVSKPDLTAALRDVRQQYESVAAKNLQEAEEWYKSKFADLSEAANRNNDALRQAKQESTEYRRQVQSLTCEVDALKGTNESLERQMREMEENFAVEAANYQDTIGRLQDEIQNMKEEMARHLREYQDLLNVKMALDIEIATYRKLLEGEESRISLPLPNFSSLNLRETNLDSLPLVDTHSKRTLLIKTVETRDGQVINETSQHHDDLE
Kind of assay: Western blot probed with BC2-NbAF488.

B1: BC2-NbC50A_C102S (VHH)
VHH: QVQLVESGGGLVQPGGSLTLSCTASGFTLDHYDIGWFRQAPGKEREGVSAINNSDDDTYYADSVKGRFTIFMDNAKDTVYLQMNSLKPEDTAIYYCAEARGSKRGRYEYDFWGQGTQVTVSS
notes: Mutant without the additional disulfide bond between CDR3 and FR2
With B1, the binding result in assay [1] was “no binding”.

B2: BC2-Nb(R106S) (VHH)
VHH: QVQLVESGGGLVQPGGSLTLSCTASGFTLDHYDIGWFRQAPGKEREGVSCINNSDDDTYYADSVKGRFTIFMDNAKDTVYLQMNSLKPEDTAIYYCAEARGCKRGSYEYDFWGQGTQVTVSS
notes: Headlock mutant; immobilized on beads in the library pulldown
On to B2, for which the ratio was found to be 0.5 in assay [2]; 1 in [3]; 1.1 in assay [4]; 0.9 in [5]; 0.5 in the assay with BC2T H9D library peptide; 1 with BC2T S8E library peptide. The ratio worked out at 0.7 in assay [6], 0.6 in assay [7], 0.6 in the assay with BC2T H9E library peptide and 0.9 in the assay with BC2T S8D library peptide.

B3: BC2-NbATTO647 (VHH)
VHH: QVQLVESGGGLVQPGGSLTLSCTASGFTLDHYDIGWFRQAPGKEREGVSCINNSDDDTYYADSVKGRFTIFMDNAKDTVYLQMNSLKPEDTAIYYCAEARGCKRGRYEYDFWGQGTQVTVSS
modifications: Atto647 coupled chemically with the NHS-activated dye (sites not given)
notes: also called fluorescently labeled BC2-Nb (ATTO647); not shown: C-terminal 6xHis-tag added by the pHEN6 vector
With B3, the binding result in [8] is on record as “binds”.

B4: BC2 nanobody (BC2-Nb) (VHH)
VHH: QVQLVESGGGLVQPGGSLTLSCTASGFTLDHYDIGWFRQAPGKEREGVSCINNSDDDTYYADSVKGRFTIFMDNAKDTVYLQMNSLKPEDTAIYYCAEARGCKRGRYEYDFWGQGTQVTVSS
notes: Alpaca VHH, 122 aa; in solution at 5-50 nM in the BLI assay
In [9], B4 displayed a Kd of 2.6 nM, a koff of 0.0005 s⁻¹ and a kon of 190000 M⁻¹ s⁻¹. Further, in assay [10], the Kd stood at 1.9 nM, the koff was determined as 0.0002 s⁻¹ and the kon turned out to be 110000 M⁻¹ s⁻¹. Besides, in assay [11], the Kd was 0.7 nM, the koff was determined as 6.8e-05 s⁻¹ and the kon is 92000 M⁻¹ s⁻¹.

B5: BC2-NbAF488 (VHH)
VHH: QVQLVESGGGLVQPGGSLTLSCTASGFTLDHYDIGWFRQAPGKEREGVSCINNSDDDTYYADSVKGRFTIFMDNAKDTVYLQMNSLKPEDTAIYYCAEARGCKRGRYEYDFWGQGTQVTVSS
modifications: AlexaFluor488 coupled chemically with the NHS-activated dye (sites not given)
notes: also called BC2-Nb488; fluorescently labeled BC2-Nb (AlexaFluor488); not shown: C-terminal 6xHis-tag added by the pHEN6 vector
Consider B5, for which the binding result in assay [12] is “binds”; in assay [13], “binds”; in assay [14], “no binding”.

The Kd is the concentration at which binding is half-saturated. Higher therefore signals weaker binding. The term koff denotes the first-order rate constant of dissociation. Low values mean slow dissociation, high ones fast dissociation. What is called kon is a measure of how fast the partners come together.
